From patent US20180022822A1 (MABIMMUNE DIAGNOSTICS, published 2018) come the findings set out here.

For orientation: EC50 means the concentration needed to bring the measured effect to its halfway point.

The target of experiment [1] is T1, cFAP (mixture of three FAP peptides) (human).
T1 construct: A mixture of three separate peptides coated together, not a complex; The three chains are the three components; also called directly coated FAP peptides mixture
T1 peptide 1: HYIKDTVENAIQITS
T1 peptide 2: GWSYGGYVSSLALAS
T1 peptide 3: QVDFQAMWYSDQNHGL
Nature of the experiment: direct ELISA: coated mixture of three FAP peptides (cFAP). (In general: ELISA stands for enzyme-linked immunosorbent assay.)

Experiment [2] deals with T2, recombinant human Fibroblast Activation Protein (FAP) with N-terminus 6x histidine tag (human, UniProt Q12884 26-760).
T2 construct: Bought protein; also called rFAP; rhFAP
T2 sequence: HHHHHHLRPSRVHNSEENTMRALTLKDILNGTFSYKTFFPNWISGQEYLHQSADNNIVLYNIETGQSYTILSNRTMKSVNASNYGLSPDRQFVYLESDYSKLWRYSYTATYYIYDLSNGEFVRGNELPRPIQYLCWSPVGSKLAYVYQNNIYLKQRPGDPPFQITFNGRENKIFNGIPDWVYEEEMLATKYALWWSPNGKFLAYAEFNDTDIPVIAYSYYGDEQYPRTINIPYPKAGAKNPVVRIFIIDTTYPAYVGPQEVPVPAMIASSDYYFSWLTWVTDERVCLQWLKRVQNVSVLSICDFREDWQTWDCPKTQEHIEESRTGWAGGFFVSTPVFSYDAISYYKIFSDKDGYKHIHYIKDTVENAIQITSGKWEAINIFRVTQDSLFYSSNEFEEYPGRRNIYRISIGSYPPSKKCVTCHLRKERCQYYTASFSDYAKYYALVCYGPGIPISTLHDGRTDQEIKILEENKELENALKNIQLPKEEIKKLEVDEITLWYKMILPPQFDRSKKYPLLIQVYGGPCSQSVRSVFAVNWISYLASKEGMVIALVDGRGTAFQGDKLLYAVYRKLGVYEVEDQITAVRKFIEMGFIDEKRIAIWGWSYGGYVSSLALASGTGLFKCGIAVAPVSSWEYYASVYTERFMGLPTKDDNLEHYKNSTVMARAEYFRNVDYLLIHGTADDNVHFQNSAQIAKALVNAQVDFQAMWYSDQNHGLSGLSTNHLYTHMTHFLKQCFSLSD
Nature of the experiment: capture ELISA: His-tagged rFAP captured by coated anti-His antibody (sFAP). As for the experimental part: (§1) For the capture ELISA, the microplates were coated with mouse anti-His monoclonal antibody (Clontech) diluted to a concentration of 3 μg/ml in PBS, the plates were then blocked, FAP or BSA were diluted to a concentration of 2 μg/ml in PBS and added to the plates to be captured. The binding efficiency of the antibodies was then tested.
The EC₅₀ values were estimated by a non-linear regression using GraphPad Prism (San Diego, USA) software.

The target in experiment [3] is T2, recombinant human Fibroblast Activation …. Nature of the experiment: direct ELISA: rFAP directly coated (FAP).
For experiment [4] the target is unchanged. Briefly: capture ELISA: His-tagged rFAP captured by coated anti-His antibody (anti-His+rFAP), antibody titrated, OD 450 nm [continued) I]. As for the experimental part:
as §1

For experiment [5] the target is unchanged. Nature of the experiment: direct ELISA: rFAP coated directly on the plate, antibody titrated, OD 450 nm [continued) J].
Experiment [6] addresses T3, bovine serum albumin (BSA) (bovine, UniProt P02769 25-607).
T3 construct: Negative control antigen in the ELISAs
Nature of the experiment: direct ELISA: BSA coated directly on the plate [continued) D].

Experiment [7] addresses T2, recombinant human Fibroblast Activation …. Nature of the experiment: direct ELISA: rFAP directly coated.
The target in experiment [8] is T4, FAP peptide 126 (501-IQLPKEEIKKLEVDE-515) (human).
T4 construct: Linear 15-mer spotted on a nitrocellulose membrane
T4 peptide: IQLPKEEIKKLEVDE
Nature of the experiment: pepscan, spotted 15-mer peptides. Here is the method:
(§2) Binding capacity of the antibodies was tested on these peptides spotted onto a nitrocellulose membrane (JPT Peptide Technologies, Berlin, Germany) and using HRP-conjugated donkey anti-human IgG secondary antibody (Jackson immunoResearch, Newmarket, UK) followed by detection of HRP activity (FIGS. 4A and C). In brief, epitope mapping was performed using scans of overlapping peptides. The entire sequences of FAP were synthesized as a total of 188 linear 15-mer peptides with an 11 amino acid overlap between individual peptides. Those peptides were spotted onto nitrocellulose membranes (JPT Peptide Technologies, Berlin, Germany). The membrane was activated for 5 min in methanol and washed in TBS for 10 min at RT. Non-specific binding sites were blocked for 2 h at RT with Roti®-Block (Carl Roth GmbH+Co. KG, Karlsruhe, Germany). Human antibodies (1 μg/ml) were incubated in Roti®-Block for 3 h at RT. Binding of primary antibody was determined using HRP-conjugated donkey anti-human IgG secondary antibody. Blots were developed and evaluated using ECL and ImageQuant 350 detection (GE Healthcare, Otelfingen, Switzerland).

Experiment [9] has as its target T5, FAP peptide 125 (497-ALKNIQLPKEEIKKL-511) (human).
T5 construct: Linear 15-mer spotted on a nitrocellulose membrane
T5 peptide: ALKNIQLPKEEIKKL
Nature of the experiment: pepscan, spotted 15-mer peptides. As for the experimental part: as §2

For experiment [10], the target named is T2, recombinant human Fibroblast Activation …. Briefly: direct ELISA: rFAP coated directly on the plate, antibody titrated, OD 450 nm [continued) F].
In experiment [11] the target is T3, bovine serum albumin (BSA). Briefly: direct ELISA: BSA coated directly on the plate [continued) F].
The target in experiment [12] is T2, recombinant human Fibroblast Activation …. Briefly: capture ELISA: His-tagged rFAP captured by coated anti-His antibody (anti-His+rFAP), antibody titrated, OD 450 nm [continued) E]. As for the experimental part: as §1
The target is the same in experiment [13]. Briefly: capture ELISA: His-tagged rFAP captured by coated anti-His antibody (anti-His+rFAP), antibody titrated, OD 450 nm; the curve reaches no upper plateau [continued) G]. As for the experimental part: as §1
Experiment [14] shares this target. Briefly: direct ELISA: rFAP coated directly on the plate, antibody titrated, OD 450 nm; the curve reaches no upper plateau [continued) H].
Experiment [15] deals with T3, bovine serum albumin (BSA). Briefly: direct ELISA: BSA coated directly on the plate [continued) H].

T3 sequence (P02769 25-607 limits assumed): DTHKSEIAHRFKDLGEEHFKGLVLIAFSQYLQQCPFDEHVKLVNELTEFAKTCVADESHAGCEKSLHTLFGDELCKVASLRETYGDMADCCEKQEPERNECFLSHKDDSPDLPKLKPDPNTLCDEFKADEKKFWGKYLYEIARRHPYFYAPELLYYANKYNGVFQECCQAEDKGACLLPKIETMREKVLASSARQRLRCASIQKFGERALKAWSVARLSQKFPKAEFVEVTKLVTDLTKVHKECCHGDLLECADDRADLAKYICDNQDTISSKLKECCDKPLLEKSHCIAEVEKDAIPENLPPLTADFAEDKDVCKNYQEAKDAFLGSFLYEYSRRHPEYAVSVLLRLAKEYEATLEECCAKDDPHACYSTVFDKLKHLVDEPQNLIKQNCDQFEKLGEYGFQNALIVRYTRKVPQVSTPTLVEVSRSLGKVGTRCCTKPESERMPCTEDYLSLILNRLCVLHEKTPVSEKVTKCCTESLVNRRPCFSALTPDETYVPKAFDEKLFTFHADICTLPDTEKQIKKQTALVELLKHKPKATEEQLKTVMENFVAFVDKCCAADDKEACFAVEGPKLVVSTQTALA

B1: NI-206.27E8 (antibody, V domains shown)
VH: EVQLVESGGGLVEPGGSLRLSCAASGFTFSDAWMNWVRQAPGKGLEWVGRIKTKSDGGTTDYAAPVRGRFSISRDDSKNTLFLEMNSLKTEDTAIYYCFITVIVVSSESPLDHWGQGTLVTVSS
VL: SYELTQPPSVSVSPGQTARITCSGDELPKQYAYWYQQKPGQAPVLVIYKDRQRPSGIPERFSGSSSGTTVTLTISGVQAEDEADYYCQSAYSINTYVIFGGGTKLTVL
notes: Recombinant complete human IgG1; Cy5-labelled in flow cytometry
With B1, in experiment [1], the binding result is given as “no binding”. Besides, the EC50 in experiment [2] came out at 3.36 nM; in [3] it was 0.33 nM.

B2: NI-206.12G4 (antibody, V domains shown)
VH: EVQLVESGGGLVKPGGSLRLSCAASGFTFSDYYMSWIRQAPGKGLEWISYISSGSSYTNYADSVKGRFTISRDNAKKSVYLEVNGLTVEDTAVYYCARVRYGDREMATIGGFDFWGQGTLVTVSS
VL: SYELTQPPSVSVSPGQTARITCSGDALPKQYAYWYQQSPGQAPVLVIYKDSERPSGIPERFSGSSSGTTVTLTISGVQAEDEADYYCQSADSGGTSRIFGGGTKLTVL
notes: as for B1
Turning to B2, the binding result in [1] is listed as “no binding”. In addition, the EC50 in experiment [3] worked out at 1.4 nM.

B3: NI-206.6D3 (antibody, V domains shown)
VH: EVQLVESGGGLVKPGESLRLSCAASGFTFSKAWMNWVRQGPGKGLEWVGRVKSKTDGGTTDYAAPVKGRFTISRDDSKDTVFLQMNSLKTEDTAVYYCSIQFIVVGDRGRDDQYMDVWGKGTTVTVSS
VL: SYVLTQPPSVSVSPGQTARITCSGDALPKQYAFWYQQKPGQAPVIMIYKDNQRPSGIPERFSGSSSGTTVTLTISGVQTEDEADYYCQSADSTNTHVVFGGGTKLTVL
notes: as for B1
On to B3, for which the binding result in experiment [1] was “no binding”. The EC50 in experiment [2] turned out to be 118 nM; in experiment [4] it was 0.272 nM; in experiment [3], 86.5 nM; in experiment [5] it was 3.54 nM.

B4: NI-206.17A6 (antibody, V domains shown)
VH: QVQLQESGPGLVRSTETLSLTCLVSGDSINSHYWSWLRQSPGRGLEWIGYIYYTGPTNYNPSLKSRVSISLGTSKDQFSLKLSSVTAADTARYYCARNKVFWRGSDFYYYMDVWGKGTTVTVSS
VL: EIVLTQSPGTLSLSLGERATLSCRASQSLANNYLAWYQQKPGQAPRLLMYDASTRATGIPDRFSGSGSGTDFTLTISRLEPEDFAVYYCQQFVTSHHMYIFGQGTKVEIK
notes: Recombinant complete human IgG1 with a kappa light chain
As for B4, in [1], the binding result is given as “no binding”. The EC50 came to 50.2 nM in experiment [2] and 10.5 nM in experiment [3].

B5: NI-206.59B4 (antibody, V domains shown)
VH: QVQLVQSGAEVKKPGASVKVSCKTSGYTFTDYYIHWVRQAPGQGLEWMGWINPNRGGTNYAQKFQGRVTMTRDTSIATAYMELSRLRSDDTAVYYCATASLKIAAVGTFDCWGQGTLVTVSS
VL: SYELTQPPSVSVSPGQTARITCSGDALSKQYAFWFQQKPGQAPILVIYQDTKRPSGIPGRFSGSSSGTTVTLTISGAQADDEADYYCQSADSSGTYVFGTGTKVTVL
notes: as for B1
With B5, the binding result in experiment [1] and in [6] was “no binding” in each case. For the same molecule, the EC50 in [2] turned out to be 0.044 nM; in [3] it was 0.096 nM.

B6: NI-206.22F7 (antibody, V domains shown)
VH: EVQLVETGGGVVQPGRSLRLSCAASGFSFSTHGMYWVRQPPGKGLEWVAVISYDGSDKKYADSVKGRFTISRDNSKNTVYLEMSSVRAEDTALYYCFCRRDAFDLWGQGTMVTVSS
VL: SYVLTQPPSVSVSPGQTARITCSGDALPKKYAYWYQQKSGQAPVLVIYEDTKRPSGIPERFSGSSSGTMATLTISGAQVEDEADYYCYSTDSSGNYWVFGGGTEVTVL
notes: Recombinant complete human IgG1
On to B6, for which the EC50 in experiment [1] was found to be 0.12 nM. In addition, the binding result in experiment [7] is on record as “no binding”.

B7: NI-206.18H2 (antibody, V domains shown)
VH: QVQLQESGPRLVKPSETLSLTCTVSGYSISNGYYWGWIRQPPGQGLEWIASVWHSGNTYHNPSLKSRVTILVDTLKNQFSLNLKSVTAADTALYYCARSYTRNDVGAFETWGQGTMVTVSS
VL: SYELTQPPSVSVSPGQTARIACSGDELPKRYAYWYQQKSGQAPVLVMYEDTKRPSGIPERLSGSSSGTVTTLTISGAQVEDEADYYCYSTAPSGNHTFVFGTGTRVTVL
notes: as for B1
For the molecule B7, the binding result in experiment [1] is recorded as “no binding”; in [8], “binds”; in experiment [9] it was “binds”; in [11], “no binding”. For the same molecule, the EC50 in experiment [2] worked out at 0.272 nM; in experiment [10], 2.9 nM; in experiment [3] it was 3.54 nM; in experiment [12], 1.33 nM.

B8: NI-206.20A8 (antibody, V domains shown)
VH: EVQLVESGGGLVQPGGSLKLSCAGSGLDLSASAVHWVRQASGKGLEWIGRIRSKPNHYATTYLASVRGRFILSRDDSENTAYLQMNSLRTEDTAVYYCRIGILNSDHWGRGTLVTVSS
VL: QSVLTQPPSASGTPGQTVIISCSGSSSNLGRKTLNWYQQLPGAAPKLLIFKNDQRASGVPDRFSASKSGTSASLTISGLQSDDEADYYCGTWDDSLDNWVFGGGTKVTVL
notes: as for B6
As for B8, the binding result in experiment [1] and in experiment [15] was “no binding” throughout. The EC50 in [13] came out at 118 nM; in experiment [2], 1.33 nM; in experiment [3], 2.9 nM; in experiment [14] it was 86.5 nM.
